Consider three compounds from US20190100518A1 (priority 2016, published 2019).

Data set [1] is classed as physicochemical.
The target of data set [2] is T1, lysozyme (Gallus gallus, UniProt P00698).
T1 construct: purchased Sigma-Aldrich L-4919
The experiment in a line: circular dichroism (CD) spectrum, higher-order structure of lysozyme. It counts as physicochemical. The conditions noted are these: 25° C. The protocol:
A keto-ABNO-lysozyme conjugate prepared by the same method as in Example 6 was dissolved in water, and the concentration was adjusted to 20 μM to provide an aqueous solution for a test group. On the other hand, lysozyme alone was dissolved in water, and the concentration was adjusted to 20 μM to provide an aqueous solution for a control group.
Using a circular dichroism (CD) dispersion meter Model 202SF (manufactured by AVIV Biomedical, Inc.), the CD spectrum of the aqueous solution in each of the test group and the control group was measured under the following conditions to perform analysis of the higher-order structure of the lysozyme in each aqueous solution.
On the other hand, control group A was prepared in the same manner as in the method described in Example 6 except that the same amount of water was added instead of the aqueous NaNO2 solution. As control group B, lysozyme alone (20 μM) was used. As control group C, a phenylmaleimide-lysozyme conjugate prepared by the method described in Example 15 was used.
Using a circular dichroism (CD) dispersion meter Model 202SF (manufactured by AVIV Biomedical, Inc.), the CD spectrum was measured for each of the test group and the control groups under the following conditions.
(Circular dichroism is widely used to follow secondary structure.)

[3] abbreviates: Example 16: 200 to 250 nm, compared with control groups A and B, FIG. 7.

T1 sequence (P00698 19-147): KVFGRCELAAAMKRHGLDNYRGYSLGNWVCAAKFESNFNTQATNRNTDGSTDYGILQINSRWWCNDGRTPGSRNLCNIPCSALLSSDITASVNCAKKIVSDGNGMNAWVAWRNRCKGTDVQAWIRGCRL

On to `[O]N1C2CCCC1CC(=O)C2` [keto-ABNO, keto-azabicyclo[3.3.1]nonane N-oxyl], for which the solubility in water result in data set [1] is given as “dissolve in water”. As for “keto-ABNO-lysozyme conjugate: lysozyme bound to keto-ABNO at a tryptophan residue, prepared in water with NaNO2 and AcOH”, the “higher-order structure of lysozyme (waveform of the CD spectrum)” value in data set [2] (Example 14: 20 μM in water, 200 to 250 nm, compared with lysozyme alone, FIG. 5) is “not influenced”; in data set [2] (setting [3]), “maintained”. With “phenylmaleimide-lysozyme conjugate: lysozyme bound to phenylmaleimide through a cysteine residue, cysteine modification method comparison [reference compound]”, in data set [2] (setting [3]), the “higher-order structure of lysozyme (waveform of the CD spectrum)” value is on record as “has changed”.
